Reference: IntAct's records for PubMed 18583988

B1: Nibrin (Homo sapiens), O60934 (parent)
chain: MWKLLPAAGPAGGEPYRLLTGVEYVVGRKNCAILIENDQSISRNHAVLTANFSVTNLSQTDEIPVLTLKDNSKYGTFVNEEKMQNGFSRTLKSGDGITFGVFGSKFRIEYEPLVACSSCLDVSGKTALNQAILQLGGFTVNNWTEECTHLVMVSVKVTIKTICALICGRPIVKPEYFTEFLKAVESKKQPPQIESFYPPLDEPSIGSKNVDLSGRQERKQIFKGKTFIFLNAKQHKKLSSAVVFGGGEARLITEENEEEHNFFLAPGTCVVDTGITNSQTLIPDCQKKWIQSIMDMLQRQGLRPIPEAEIGLAVIFMTTKNYCDPQGHPSTGLKTTTPGPSLSQGVSVDEKLMPSAPVNTTTYVADTESEQADTWDLSERPKEIKVSKMEQKFRMLSQDAPTVKESCKTSSNNNSMVSNTLAKMRIPNYQLSPTKLPSINKSKDRASQQQQTNSIRNYFQPSTKKRERDEENQEMSSCKSARIETSCSLLEQTQPATPSLWKNKEQHLSENEPVDTNSDNNLFTDTDLKSIVKNSASKSHAAEKLRSNKKREMDDVAIEDEVLEQLFKDTKPELEIDVKVQKQEEDVNVRKRPRMDIETNDTFSDEAVPESSKISQENEIGKKRELKEDSLWSAKEISNNDKLQDDSEMLPKKLLLTEFRSLVIKNSTSRNPSGINDDYGQLKNFKKFKKVTYPGAGKLPHIIGGSDLIAHHARKNTELEEWLRQEMEVQNQHAKEESLADDLFRYNPYLKRRR

Variants of: B1
Details: with mdc1_human MDC1, Q14676
Chain of mdc1_human MDC1, Q14676 (Q14676 whole entry): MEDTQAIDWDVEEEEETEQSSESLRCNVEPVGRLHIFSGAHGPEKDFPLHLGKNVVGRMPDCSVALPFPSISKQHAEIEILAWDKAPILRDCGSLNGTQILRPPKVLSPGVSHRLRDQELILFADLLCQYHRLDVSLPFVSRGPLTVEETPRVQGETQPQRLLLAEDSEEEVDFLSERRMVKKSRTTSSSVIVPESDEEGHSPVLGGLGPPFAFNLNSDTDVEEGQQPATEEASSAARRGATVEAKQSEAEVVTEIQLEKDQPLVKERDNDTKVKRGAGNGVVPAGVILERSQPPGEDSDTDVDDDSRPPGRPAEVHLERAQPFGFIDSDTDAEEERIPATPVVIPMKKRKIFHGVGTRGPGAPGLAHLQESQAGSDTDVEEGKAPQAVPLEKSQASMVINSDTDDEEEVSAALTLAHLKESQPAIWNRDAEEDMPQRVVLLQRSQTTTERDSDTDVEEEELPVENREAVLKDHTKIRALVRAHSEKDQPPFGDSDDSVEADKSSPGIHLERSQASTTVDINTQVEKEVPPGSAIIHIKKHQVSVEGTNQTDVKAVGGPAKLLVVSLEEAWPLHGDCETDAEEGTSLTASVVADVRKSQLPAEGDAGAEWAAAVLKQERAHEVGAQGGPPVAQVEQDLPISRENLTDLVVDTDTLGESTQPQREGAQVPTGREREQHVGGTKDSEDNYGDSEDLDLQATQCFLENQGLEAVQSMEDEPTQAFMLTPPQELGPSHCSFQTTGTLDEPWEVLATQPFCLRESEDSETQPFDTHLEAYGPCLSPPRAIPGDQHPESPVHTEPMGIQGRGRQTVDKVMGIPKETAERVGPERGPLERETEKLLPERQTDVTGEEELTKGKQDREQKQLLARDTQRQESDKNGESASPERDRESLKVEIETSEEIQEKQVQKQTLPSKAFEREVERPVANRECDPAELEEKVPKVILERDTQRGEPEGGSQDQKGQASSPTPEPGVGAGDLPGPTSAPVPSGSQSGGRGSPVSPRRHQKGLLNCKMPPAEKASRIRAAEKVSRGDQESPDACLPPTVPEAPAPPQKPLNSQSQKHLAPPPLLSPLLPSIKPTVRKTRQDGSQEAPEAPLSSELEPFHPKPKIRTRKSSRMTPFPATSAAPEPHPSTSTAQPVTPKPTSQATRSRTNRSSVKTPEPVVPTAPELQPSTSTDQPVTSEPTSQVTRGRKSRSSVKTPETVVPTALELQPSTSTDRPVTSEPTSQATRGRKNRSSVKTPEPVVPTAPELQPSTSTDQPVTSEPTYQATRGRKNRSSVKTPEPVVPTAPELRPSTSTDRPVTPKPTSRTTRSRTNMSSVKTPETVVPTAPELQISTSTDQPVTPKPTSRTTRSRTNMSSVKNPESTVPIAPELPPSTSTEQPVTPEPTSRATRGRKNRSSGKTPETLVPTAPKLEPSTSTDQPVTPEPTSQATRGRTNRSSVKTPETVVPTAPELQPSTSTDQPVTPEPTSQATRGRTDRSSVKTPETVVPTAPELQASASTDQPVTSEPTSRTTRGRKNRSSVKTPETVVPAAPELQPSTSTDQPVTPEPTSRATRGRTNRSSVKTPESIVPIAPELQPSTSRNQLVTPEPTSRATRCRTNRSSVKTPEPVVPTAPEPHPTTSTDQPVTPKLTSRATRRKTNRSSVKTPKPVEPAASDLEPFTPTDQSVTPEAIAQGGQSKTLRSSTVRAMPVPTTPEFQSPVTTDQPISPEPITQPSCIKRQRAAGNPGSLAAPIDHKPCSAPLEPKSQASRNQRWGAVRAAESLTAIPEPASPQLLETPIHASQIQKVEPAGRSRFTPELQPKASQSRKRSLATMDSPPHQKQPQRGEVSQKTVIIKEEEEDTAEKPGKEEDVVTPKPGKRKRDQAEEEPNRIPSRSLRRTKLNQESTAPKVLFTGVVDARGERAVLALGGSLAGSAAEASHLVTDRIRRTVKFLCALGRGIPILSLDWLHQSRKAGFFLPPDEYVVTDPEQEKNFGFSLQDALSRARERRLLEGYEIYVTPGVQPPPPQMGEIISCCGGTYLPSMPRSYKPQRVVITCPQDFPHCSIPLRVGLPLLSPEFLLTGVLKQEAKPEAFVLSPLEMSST

| effect of a mutation on the interaction | Variant |
| --- | --- |
| disrupting interaction | K160M |

Variants of: B1
Details: with mdc1_human MDC1, Q14676
Remark: another data set of the same source

| effect of a mutation on the interaction | Variant |
| --- | --- |
| disrupting interaction | R28A |

Variants of: B1
Details: with mdc1_human MDC1, Q14676
Remark: another data set of the same source

| effect of a mutation on the interaction | Variant |
| --- | --- |
| disrupting interaction | H45A |
